According to PMC4837482, “The complex binding mode of the peptide hormone H2 relaxin to its receptor RXFP1” (Nature Communications, 2016):
Where a chain is given by its changes, count along the chain named.

Assays:
Assay in all cases: cAMP activity assay (pCRE β-galactosidase reporter), transfected HEK293T cells
Type in all cases: cell-based
RXFP1 = target: T1, RXFP1 (Homo sapiens, UniProt Q9HBX9); conditions: construct RXFP1 (wild type), ±s.e.m.
T1 construct: transiently transfected human embryonic kidney (HEK) 293T cells expressing full-length RXFP1 and mutants; expressed in transfected cells; host or cells: HEK293T
T1 sequence (Q9HBX9 1-757): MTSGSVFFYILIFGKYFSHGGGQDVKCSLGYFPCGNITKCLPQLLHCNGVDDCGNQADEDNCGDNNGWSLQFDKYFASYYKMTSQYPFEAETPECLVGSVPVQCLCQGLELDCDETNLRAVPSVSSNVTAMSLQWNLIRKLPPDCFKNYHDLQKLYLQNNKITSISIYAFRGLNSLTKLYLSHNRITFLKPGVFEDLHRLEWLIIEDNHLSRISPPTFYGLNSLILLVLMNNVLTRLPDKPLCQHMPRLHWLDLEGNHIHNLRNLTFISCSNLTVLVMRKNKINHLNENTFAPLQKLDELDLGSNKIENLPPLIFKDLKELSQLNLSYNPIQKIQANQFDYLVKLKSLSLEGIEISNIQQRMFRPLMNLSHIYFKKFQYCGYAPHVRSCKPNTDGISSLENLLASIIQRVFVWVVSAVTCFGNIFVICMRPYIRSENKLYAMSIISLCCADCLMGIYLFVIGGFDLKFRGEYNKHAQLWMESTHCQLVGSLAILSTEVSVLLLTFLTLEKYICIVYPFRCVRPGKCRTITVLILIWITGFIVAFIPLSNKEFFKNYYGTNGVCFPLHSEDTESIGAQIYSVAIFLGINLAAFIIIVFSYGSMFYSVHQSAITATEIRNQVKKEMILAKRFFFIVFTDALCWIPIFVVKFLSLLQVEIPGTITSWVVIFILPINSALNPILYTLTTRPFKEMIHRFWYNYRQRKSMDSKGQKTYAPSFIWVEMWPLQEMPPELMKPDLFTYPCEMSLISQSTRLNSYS
How it was run: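 Receptor signalling is measured as CRE-driven β-galactosidase activity after H2 relaxin exposure, using a colorimetric substrate read at 570 nm. Values are normalised to 5 μM Forskolin, pooled from at least three independent triplicate experiments.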

RXFP1 T61A = target: T2, RXFP1 T61A (Homo sapiens, UniProt Q9HBX9, T83A); conditions: construct T61A, ±s.e.m.
T2 construct: cells expressing full-length RXFP1 and mutants; expressed in transfected cells; host or cells: HEK293T
T2 sequence (Q9HBX9 23-757 T83A limits assumed): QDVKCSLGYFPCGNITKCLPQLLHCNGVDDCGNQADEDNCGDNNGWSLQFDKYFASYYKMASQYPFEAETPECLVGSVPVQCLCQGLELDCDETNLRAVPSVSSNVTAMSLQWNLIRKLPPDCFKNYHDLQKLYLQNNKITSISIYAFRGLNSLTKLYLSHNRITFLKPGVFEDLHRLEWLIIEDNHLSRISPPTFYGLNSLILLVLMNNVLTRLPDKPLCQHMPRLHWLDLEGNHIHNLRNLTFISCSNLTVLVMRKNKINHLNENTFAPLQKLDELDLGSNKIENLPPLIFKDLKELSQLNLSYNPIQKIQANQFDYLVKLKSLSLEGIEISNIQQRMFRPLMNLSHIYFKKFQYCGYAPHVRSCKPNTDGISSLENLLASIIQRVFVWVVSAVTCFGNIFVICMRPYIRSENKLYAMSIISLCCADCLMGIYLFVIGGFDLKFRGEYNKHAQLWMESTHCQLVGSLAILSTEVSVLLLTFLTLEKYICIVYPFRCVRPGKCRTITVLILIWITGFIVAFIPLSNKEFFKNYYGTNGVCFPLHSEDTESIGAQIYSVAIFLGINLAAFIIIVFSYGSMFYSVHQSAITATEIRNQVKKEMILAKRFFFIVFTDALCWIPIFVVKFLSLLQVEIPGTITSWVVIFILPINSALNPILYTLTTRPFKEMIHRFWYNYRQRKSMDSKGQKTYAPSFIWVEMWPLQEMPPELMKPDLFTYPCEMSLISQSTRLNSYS
How it was run: (§1)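 Stim: H2 relaxin in minimal media/1% DMSO; +ctrl 5 μM Forskolin, −ctrl vehicle. Plates frozen −80 °C o/n, lysed 10 min + 10 min in Na2HPO4 pH 8.0 buffers, CPRG substrate, A570. Data = % Forskolin max.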

RXFP1 Y58A = target: T3, RXFP1 Y58A (Homo sapiens, UniProt Q9HBX9, Y80A); conditions: construct Y58A, ±s.e.m.
T3 construct: cells expressing full-length RXFP1 and mutants; expressed in transfected cells; host or cells: HEK293T
T3 sequence (Q9HBX9 23-757 Y80A limits assumed): T2 sequence (Q9HBX9 23-757 T83A limits assumed) with Y58A, A61T
How it was run: as §1

[1] = percentage of maximum response to 5 μM Forskolin

Substance: H2 relaxin: two-chain 6-kDa peptide hormone structurally related to insulin; recombinant human gene-2 H2 relaxin provided by Corthera
- H2 relaxin pEC50 (RXFP1; cAMP reporter): 10.97±0.05 (6)
- H2 relaxin Emax (RXFP1; [1]): 116.3±4.2 (6) %
- H2 relaxin pEC50 (RXFP1 T61A; cAMP reporter): 11.15±0.17 (5)
- H2 relaxin Emax (RXFP1 T61A; [1]): 142.58±15.97 (4) %
- H2 relaxin pEC50 (RXFP1 Y58A; cAMP reporter): 10.88±0.09 (3)
- H2 relaxin Emax (RXFP1 Y58A; [1]): 89.14±7.93 (3) %
